Laboratory results as given in US20240052059A1 (PUBLIC UNIVERSITY CORPORATION NARA MEDICAL UNIVERSITY, published 2024).

Target: FIX remaining in commercially-available FIX-deficient human plasma (trace amount) (human, UniProt P00740 47-461)
Test: cell-based or functional assay

Sequence of FIX remaining in commercially-available FIX-deficient human plasma (trace amount) (P00740 47-461 limits assumed): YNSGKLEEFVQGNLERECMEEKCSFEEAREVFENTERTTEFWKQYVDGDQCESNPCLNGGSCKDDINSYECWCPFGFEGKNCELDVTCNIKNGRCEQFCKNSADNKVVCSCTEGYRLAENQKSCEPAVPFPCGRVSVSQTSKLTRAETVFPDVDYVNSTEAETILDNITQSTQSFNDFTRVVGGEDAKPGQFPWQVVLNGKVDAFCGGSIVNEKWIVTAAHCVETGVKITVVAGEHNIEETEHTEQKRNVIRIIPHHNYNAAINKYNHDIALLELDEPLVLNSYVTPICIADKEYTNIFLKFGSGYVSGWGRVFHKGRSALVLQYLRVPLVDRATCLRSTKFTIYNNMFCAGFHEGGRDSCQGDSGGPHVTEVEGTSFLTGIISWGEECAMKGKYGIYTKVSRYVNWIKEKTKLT

B1: ACE910 (Emicizumab), anti-FIXa/FX bispecific antibody (Q499-z121/J327-z119/L404-k) (bispecific antibody, human IgG4 S228P, kappa)
heavy 1: QVQLVESGGGLVQPGGSLRLSCAASGFTFSYYDIQWVRQAPGKGLEWVSSISPSGQSTYYRREVKGRFTISRDNSKNTLYLQMNSLRAEDTAVYYCARRTGREYGGGWYFDYWGQGTLVTVSSASTKGPSVFPLAPCSRSTSESTAALGCLVKDYFPEPVTVSWNSGALTSGVHTFPAVLQSSGLYSLSSVVTVPSSSLGTQTYTCNVDHKPSNTKVDKRVESKYGPPCPPCPAPEFLGGPSVFLFPPKPKDTLMISRTPEVTCVVVDVSQEDPEVQFNWYVDGVEVHNAKTKPREEQYNSTYRVVSVLTVLHQDWLNGKEYKCKVSNKGLPSSIEKTISKAKGQPREPQVYTLPPSQKEMTKNQVSLTCLVKGFYPSDIAVEWESNGQPENNYKTTPPVLDSDGSFFLYSKLTVDKSRWQEGNVFSCSVMHEALHNRYTQKSLSLSP
heavy 2: QVQLVQSGSELKKPGASVKVSCKASGYTFTDNNMDWVRQAPGQGLEWMGDINTRSGGSIYNEEFQDRVIMTVDKSTDTAYMELSSLRSEDTATYHCARRKSYGYYLDEWGEGTLVTVSSASTKGPSVFPLAPCSRSTSESTAALGCLVKDYFPEPVTVSWNSGALTSGVHTFPAVLQSSGLYSLSSVVTVPSSSLGTQTYTCNVDHKPSNTKVDKRVESKYGPPCPPCPAPEFLGGPSVFLFPPKPKDTLMISRTPEVTCVVVDVSQEDPEVQFNWYVDGVEVHNAKTKPREEQYNSTYRVVSVLTVLHQDWLNGKEYKCKVSNKGLPSSIEKTISKAKGQPREPQVYTLPPSQEEMTKNQVSLTCLVKGFYPSDIAVEWESNGQPENNYKTTPPVLDSDGSFFLYSKLTVDKSRWQEGNVFSCSVMHEALHNHYTQESLSLSP
light: DIQMTQSPSSLSASVGDRVTITCKASRNIERQLAWYQQKPGQAPELLIYQASRKESGVPDRFSGSRYGTDFTLTISSLQPEDIATYYCQQYSDPPLTFGGGTKVEIKRTVAAPSVFIFPPSDEQLKSGTASVVCLLNNFYPREAKVQWKVDNALQSGNSQESVTEQDSKDSTYSLSSTLTLSKADYEKHKVYACEVTHQGLSSPVTKSFNRGEC
  APTT shortening ratio with 100 ug/mL ACE910 in FIX-deficient human plasma without FIX formulation, after further addition of anti-FIX-Gla antibody (150 ug/mL): -3%
